Source: the supplement of paper PMC10724198
± gives the standard deviation of the averaged measurements.

How the values were obtained:
Saccharomyces cerevisiae [1] = assay: protein stability index of tFT-peptide fusion (C-terminal peptide) (PSI (0-1 scale)); higher = more stable (slower turnover); conditions: genetic background: wild type; temperature: 30 C
Saccharomyces cerevisiae [2] = assay: as above
Description: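 MPS profiling in S. cerevisiae of the tFT-X12 degron library: putative degron peptides plus stable controls, 12 aa, fused to the C-terminus of a sfGFP-mCherry timer. Cells are FACS-sorted into 8 mCherry/sfGFP bins and deep-sequenced. PSI runs from 0 (unstable) to 1 (stable). Backgrounds are wild type, das1Δ and doa10Δ at 30 °C, and wild type, das1Δ, cdc34-1 and cdc53-1 at 37 °C; 2-3 technical replicates each.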

[3] = genetic background: cdc34-1, temperature: 37 C
[4] = genetic background: cdc53-1, temperature: 37 C
[5] = genetic background: das1 deletion, temperature: 30 C
[6] = genetic background: das1 deletion, temperature: 37 C
[7] = genetic background: doa10 deletion, temperature: 30 C
[8] = genetic background: wild type, temperature: 30 C
[9] = genetic background: wild type, temperature: 37 C
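Further: PSI is a weighted mean of sequencing reads over stability bins, variants kept only with over 10 reads, mCherry proximal and sfGFP distal, peptide attached via GGGS linker.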

Sequence | protein stability index (Saccharomyces cerevisiae [1]) | protein stability index (Saccharomyces cerevisiae [2]; [3]) | protein stability index (Saccharomyces cerevisiae [2]; [4]) | protein stability index (Saccharomyces cerevisiae [2]; [5]) | protein stability index (Saccharomyces cerevisiae [2]; [6]) | protein stability index (Saccharomyces cerevisiae [2]; [7]) | protein stability index (Saccharomyces cerevisiae [2]; [8]) | protein stability index (Saccharomyces cerevisiae [2]; [9])
DRHCLVSLSPDG | 0.5 ± 0.1 | 0.64 ± 0.03 | 0.665 ± 0.03 | 0.618 ± 0.015 | 0.686 ± 0.029 | 0.623 ± 0.016 | 0.6079 ± 0.0033 | 0.678 ± 0.033
PPLSRLAVFIVV | 0.4605 ± 0.0023 | 0.4397 ± 0.0027 | 0.487 ± 0.052 | 0.359 ± 0.036 | 0.524 ± 0.008 | 0.3027 ± 0.0018 | 0.353 ± 0.025 | 0.4823 ± 0.003
CPFFFFSLIFLF | 0.298 ± 0.017 | 0.16 ± 0.058 | 0.214 ± 0.044 | 0.228 ± 0.041 | 0.329 ± 0.011 | 0.349 ± 0.025 | 0.193 ± 0.03 | 0.284 ± 0.011
VFCSRSLISVVS | 0.313 ± 0.027 | 0.193 ± 0.03 | 0.243 ± 0.072 | 0.208 ± 0.041 | 0.355 ± 0.007 | 0.165 ± 0.014 | 0.192 ± 0.03 | 0.303 ± 0.011
GWRVWVQIIWGR | 0.352 ± 0.028 | 0.316 ± 0.013 | 0.409 ± 0.0041 | 0.293 ± 0.027 | 0.441 ± 0.018 | 0.282 ± 0.0029 | 0.286 ± 0.02 | 0.40261 ± 8.5e-05
KIKVFHEMVLMC | 0.18 ± 0.0043 | 0.37 ± 0.059 | 0.587 ± 0.0097 | 0.446 ± 0.031 | 0.628 ± 0.017 | 0.114 ± 0.0016 | 0.139 ± 0.013 | 0.135 ± 0.043
ALVYVPACRLVV | 0.4017 ± 0.0028 | 0.59 ± 0.049 | 0.624 ± 0.022 | 0.492 ± 0.021 | 0.634 ± 0.024 | 0.256 ± 0.011 | 0.303 ± 0.018 | 0.481 ± 0.018
FGFGSSRFLLCL | 0.471 ± 0.029 | 0.677 ± 0.015 | 0.731 ± 0.0042 | 0.609 ± 0.027 | 0.743 ± 0.0099 | 0.3357 ± 0.0026 | 0.384 ± 0.028 | 0.604 ± 0.026
NTDRRNICKISS | 0.163 ± 0.044 | 0.493 ± 0.031 | 0.671 ± 0.059 | 0.631 ± 0.02 | 0.733 ± 0.0086 | 0.105 ± 0.0079 | 0.1084 ± 0.00051 | 0.169 ± 0.0083
FIYSVFFYSYWF | 0.363 ± 0.016 | 0.36 ± 0.043 | 0.467 ± 0.033 | 0.287 ± 0.015 | 0.467 ± 0.0063 | 0.318 ± 0.025 | 0.272 ± 0.013 | 0.429 ± 0.017
GMCRVELIATCG | 0.307 ± 0.031 | 0.368 ± 0.039 | 0.409 ± 0.018 | 0.276 ± 0.036 | 0.453 ± 0.011 | 0.229 ± 0.0046 | 0.28 ± 0.026 | 0.4381 ± 0.0011
RLFMVLYRRFVL | 0.491 ± 0.069 | 0.67 ± 0.052 | 0.72 ± 0.013 | 0.626 ± 0.019 | 0.716 ± 0.018 | 0.443 ± 0.015 | 0.45 ± 0.023 | 0.608 ± 0.016
VFFCLCLCLFFV | 0.368 ± 0.031 | 0.432 ± 0.023 | 0.463 ± 0.012 | 0.341 ± 0.018 | 0.473 ± 0.028 | 0.299 ± 0.0062 | 0.314 ± 0.022 | 0.45 ± 0.036
SLCWSYVWVSCP | 0.334 ± 0.018 | 0.264 ± 0.035 | 0.302 ± 0.007 | 0.247 ± 0.024 | 0.375 ± 0.0093 | 0.21 ± 0.0079 | 0.241 ± 0.022 | 0.343 ± 0.0047
WILSIVVWGKRV | 0.188 ± 0.068 | 0.2245 ± 0.0016 | 0.363 ± 0.068 | 0.231 ± 0.025 | 0.433 ± 0.026 | 0.0761 ± 0.025 | 0.114 ± 0.017 | 0.209 ± 0.019
LWLISTYQLIGI | 0.521 ± 0.032 | 0.454 ± 0.021 | 0.583 ± 0.048 | 0.433 ± 0.011 | 0.5727 ± 0.0033 | 0.431 ± 0.022 | 0.451 ± 0.0091 | 0.536 ± 0.034
VFRVLLSLFSTL | 0.408 ± 0.0095 | 0.657 ± 0.021 | 0.7335 ± 0.0063 | 0.653 ± 0.018 | 0.738 ± 0.0053 | 0.289 ± 0.019 | 0.306 ± 0.023 | 0.4804 ± 0.0029
LLLAMLLWVSTM | 0.388 ± 0.0058 | 0.422 ± 0.0061 | 0.361 ± 0.11 | 0.305 ± 0.034 | 0.483 ± 0.02 | 0.2826 ± 0.0026 | 0.306 ± 0.021 | 0.455 ± 0.038
SCDMIVTLIQIR | 0.409 ± 0.027 | 0.5 ± 0.047 | 0.53 ± 0.022 | 0.375 ± 0.033 | 0.539 ± 0.0092 | 0.35 ± 0.016 | 0.383 ± 0.02 | 0.527 ± 0.0017
IYVLLDVNYHLP | 0.468 ± 0.042 | 0.509 ± 0.024 | 0.527 ± 0.0074 | 0.379 ± 0.024 | 0.543 ± 0.014 | 0.3542 ± 0.0026 | 0.361 ± 0.026 | 0.5681 ± 0.0038

Sequence | protein stability index (Saccharomyces cerevisiae [1]) | protein stability index (Saccharomyces cerevisiae [2]; [3]) | protein stability index (Saccharomyces cerevisiae [2]; [4]) | protein stability index (Saccharomyces cerevisiae [2]; [5]) | protein stability index (Saccharomyces cerevisiae [2]; [6]) | protein stability index (Saccharomyces cerevisiae [2]; [7]) | protein stability index (Saccharomyces cerevisiae [2]; [8]) | protein stability index (Saccharomyces cerevisiae [2]; [9])
PPVRCVRLPLSS | 0.63 ± 0.26 | 0.687 ± 0.035 | 0.744 ± 0.0097 | 0.649 ± 0.029 | 0.717 ± 0.01 | 0.647 ± 0.015 | 0.6376 ± 0.0037 | 0.689 ± 0.0054
SALLLWAISIIC | 0.22 ± 0.015 | 0.0476 ± 0.0084 | 0.117 ± 0.055 | 0.169 ± 0.031 | 0.221 ± 0.011 | 0.117 ± 0.019 | 0.15 ± 0.023 | 0.185 ± 0.011
LLLFLLLPPFPF | 0.504 ± 0.025 | 0.543 ± 0.034 | 0.59 ± 0.006 | 0.449 ± 0.025 | 0.604 ± 0.026 | 0.437 ± 0.028 | 0.445 ± 0.019 | 0.57 ± 0.0068
GLCLMICVLCFV | 0.299 ± 0.0039 | 0.207 ± 0.0085 | 0.315 ± 0.023 | 0.244 ± 0.027 | 0.382 ± 0.0052 | 0.214 ± 0.00016 | 0.23 ± 0.027 | 0.337 ± 0.023
CAIHIKIQMSVE | 0.0995 ± 0.011 | 0.0158 ± 0.0046 | 0.0731 ± 0.0079 | 0.0577 ± 0.019 | 0.136 ± 0.031 | 0.0457 ± 0.0051 | 0.0488 ± 0.02 | 0.128 ± 0.028
PTKRLFNNNKKI | 0.308 ± 0.015 | 0.589 ± 0.13 | 0.686 ± 0.057 | 0.649 ± 0.03 | 0.731 ± 0.013 | 0.184 ± 0.0066 | 0.161 ± 0.03 | 0.408 ± 0.024
LFILRPVVGVLN | 0.495 ± 0.053 | 0.531 ± 0.034 | 0.53 ± 0.021 | 0.402 ± 0.035 | 0.555 ± 0.0077 | 0.368 ± 0.012 | 0.408 ± 0.016 | 0.528 ± 0.008
ILGDPHLALIFP | 0.703 ± 0.022 | 0.689 ± 0.02 | 0.757 ± 0.012 | 0.657 ± 0.026 | 0.749 ± 0.018 | 0.652 ± 0.028 | 0.666 ± 0.021 | 0.7324 ± 0.0016
SLFERLSPVLCF | 0.308 ± 0.011 | 0.249 ± 0.037 | 0.2784 ± 0.0027 | 0.23 ± 0.024 | 0.3548 ± 0.00059 | 0.214 ± 0.008 | 0.224 ± 0.017 | 0.30185 ± 0.00011
QARVFWIIIGTA | 0.343 ± 0.0078 | 0.33 ± 0.029 | 0.412 ± 0.03 | 0.241 ± 0.029 | 0.482 ± 0.011 | 0.163 ± 0.011 | 0.194 ± 0.026 | 0.376 ± 0.023
FIFLFVALFCVF | 0.353 ± 0.067 | 0.31 ± 0.039 | 0.343 ± 0.0083 | 0.327 ± 0.017 | 0.404 ± 0.014 | 0.328 ± 0.012 | 0.29 ± 0.021 | 0.365 ± 0.036
CSLPVLFLPYYL | 0.486 ± 0.14 | 0.581 ± 0.025 | 0.5788 ± 0.0043 | 0.523 ± 0.022 | 0.625 ± 0.022 | 0.606 ± 0.014 | 0.492 ± 0.0051 | 0.572 ± 0.02
KYHLAAQLLVLL | 0.459 ± 0.037 | 0.602 ± 0.022 | 0.649 ± 0.015 | 0.531 ± 0.022 | 0.6431 ± 0.0046 | 0.401 ± 0.011 | 0.408 ± 0.0063 | 0.556 ± 0.0067
VWSFFTSFIRYI | 0.169 ± 0.028 | 0.5614 ± 0.0036 | 0.647 ± 0.018 | 0.6542 ± 0.0065 | 0.752 ± 0.041 | 0.106 ± 0.0018 | 0.109 ± 0.022 | 0.114 ± 0.0081
LDIFRKLVIVLC | 0.169 ± 0.07 | 0.0767 ± 0.013 | 0.0777 ± 0.02 | 0.18 ± 0.033 | 0.2628 ± 0.00073 | 0.102 ± 0.027 | 0.107 ± 0.025 | 0.0878 ± 0.0015
FFCRARHRLYVA | 0.233 ± 0.023 | 0.537 ± 0.044 | 0.626 ± 0.059 | 0.626 ± 0.012 | 0.675 ± 0.0094 | 0.0986 ± 0.0092 | 0.105 ± 0.0095 | 0.152 ± 0.061
FTYCIVFFFSRL | 0.457 ± 0.014 | 0.428 ± 0.024 | 0.537 ± 0.038 | 0.383 ± 0.038 | 0.571 ± 0.045 | 0.379 ± 0.011 | 0.391 ± 0.03 | 0.494 ± 0.021
FLFLESFLFFYL | 0.499 ± 0.02 | 0.5 ± 0.052 | 0.4797 ± 0.0046 | 0.418 ± 0.03 | 0.5698 ± 0.0026 | 0.502 ± 0.0079 | 0.411 ± 0.017 | 0.525 ± 0.055
CKFLYMALLFFW | 0.299 ± 0.061 | 0.278 ± 0.0085 | 0.364 ± 0.0087 | 0.263 ± 0.032 | 0.423 ± 0.025 | 0.313 ± 0.02 | 0.288 ± 0.025 | 0.392 ± 0.00069
